{
  "source": "patent US6994974B1",
  "about": "“Intracellular amyloid-beta binding (ERAB) polypeptide-related assays” (The trustees of Columbia University in the city of New York, priority 1997, dated 2006)",
  "biological_target": "T1, amyloid-beta peptide (1–42) (Homo sapiens, UniProt P05067)",
  "T1 construct": "the region encoding A4 (APP amino acids 653 to 694)",
  "test": "Binding of ^125I-TrcHis-ERAB polypeptide to amyloid-beta peptide (1–42) adsorbed to microtiter wells",
  "conditions": "excess unlabelled protein",
  "experimental": "FIGS. 2A, 2B, 2C, 2D, 2E, 2F, and 2G. […] FIG. 2A. SDS-PAGE (12%; reduced) followed by immunoblotting of TrcHis-ERAB polypeptide (FIG. 2A, lane 1; 2 μg) and TrcHis-chloramphenicol acetyltransferase (CAT; FIG. 2A, lane 2; 2 μg) fusion proteins using anti-ERAB polypeptide IgG (3 μg/ml). […] FIGS. 2B and 2C. […] Binding was analyzed by nonlinear least squares analysis using the method of Klotz and Hunston (60). FIG. 2E. […] FIGS. 2F and 2G. […] 0 indicates wells coated with albumin alone. […] Control TrcHis-CAT construct (Invitrogen) was also used to transform E. coli and the fusion protein was purified as above. Antibody to ERAB polypeptide was prepared by immunizing rabbits with ERAB polypeptide-derived peptides, corresponding to residues 100–116 and 133–147, conjugated to keyhole limpet hemocyanin. […] (for ERAB polypeptide) or overnight at 4° C. […] Unbound radioactivity was removed by washing wells five times with ice cold phosphate-buffered saline containing Tween 20 (0.05%), and bound radioactivity was eluted by incubation with Nonidet P-40 (1%).",
  "data": [
    {"molecule": "TrcHis-CAT: control fusion protein, TrcHis-chloramphenicol acetyltransferase (protein, left off: small tags and cut ends, control fusion protein, TrcHis-chloramphenicol acetyltransferase) MEKKITGYTTVDISQWHRKEHFEAFQSVAQCTYNQTVQLDITAFLKTVKKNKHKFYPAFIHILARLMNAHPEFRMAMKDGELVIWDSVHPCYTVFHEQTETFSSLWSEYHDDFRQFLHIYSQDVACYGENLAYFPKGFIENMFFVSANPWVSFTSFDLNVANMDNFFAPVFTMGKYYTQGDKVLMPLAIQVHHAVCDGFHVGRMLNELQQYCDEWQGGA", "values": [
      {"measurement": "Inhibition of ^125I-TrcHis-ERAB binding to adsorbed amyloid-beta peptide", "result": "did not inhibit"}
    ]}
  ]
}
